Patent publication US20210380703A1

B1: 374_C04 (antibody, V domains shown)
VH: EVQLLESGGGLVQPGGSLRLSCAASGFTFSSYSMNWVRQAPGKGLEWVAGINYNSGYKSYADSVKGRFTISRDNSKNTLYLQMNSLRAEDTAVYYCARSATWHDTHLDYWGQGTLVTVSS
VL: DIQMTQSPSSLSASVGDRVTITCRASQSILTYLNWYQQKPGKAPKLLIYAASSLQSGVPSRFSGSGSGTDFTLTISSLQPEDFATYYCQQSYELPLTFGGGTKVEIK
B2: 372_D04 (antibody, V domains shown)
VH: EVQLLESGGGLVQPGGSLRLSCAASGFTFSSYSMNWVRQAPGKGLEWVANINYNSGYTGYADSVKGRFTISRDNSKNTLYLQMNSLRAEDTAVYYCARSATWHDTHLDYWGQGTLVTVSS
VL: DIQMTQSPSSLSASVGDRVTITCRASQSILTYLNWYQQKPGKAPKLLIYAATSLHSGVPSRFSGSGSGTDFTLTISSLQPEDFATYYCQQSYDLPLTFGGGTKVEIK
B3: 368_H12 (antibody, V domains shown)
VH: EVQLLESGGGLVQPGGSLRLSCAASGFTFDSYSMNWVRQAPGKGLEWVASINYNSGYKGYADSVKGRFTISRDNSKNTLYLQMNSLRAEDTAVYYCARSATWHDTHLDYWGQGTLVTVSS
VL: DIQMTQSPSSLSASVGDRVTITCRASQSIVTYLNWYQQKPGKAPKLLIYAATSRASGVPSRFSGSGSGTDFTLTISSLQPEDFATYYCQQSYESPLTFGGGTKVEIK
B4: 366_D02 (antibody, V domains shown)
VH: EVQLLESGGGLVQPGGSLRLSCAASGFTFSSYSMNWVRQAPGKGLEWVASINYNGGYTSYADSVKGRFTISRDNSKNTLYLQMNSLRAEDTAVYYCARSATWHDTHLDYWGQGTLVTVSS
VL: DIQMTQSPSSLSASVGDRVTITCRASQSILSYVNWYQQKPGKAPKLLIYATTSLASGVPSRFSGSGSGTDFTLTISSLQPEDFATYYCQQSYDLPLTFGGGTKVEIK
B5: 370_E07 (antibody, V domains shown)
VH: EVQLLESGGGLVQPGGSLRLSCAASGFTFDSYSMNWVRQAPGKGLEWVANINYNGGYTGYADSVKGRFTISRDNSKNTLYLQMNSLRAEDTAVYYCARSATWHDTHLDYWGQGTLVTVSS
VL: DIQMTQSPSSLSASVGDRVTITCRASQSILTYLNWYQQKPGKAPKLLIYAATSRASGVPSRFSGSGSGTDFTLTISSLQPEDFATYYCQQSYDNPLTFGGGTKVEIK
B6: 365_A10 (antibody, V domains shown)
VH: EVQLLESGGGLVQPGGSLRLSCAASGFTFSSYGMHWVRQAPGKGLEWVAGINYNSGYTSYADSVKGRFTISRDNSKNTLYLQMNSLRAEDTAVYYCARSATWHDTHLDYWGQGTLVTVSS
VL: DIQMTQSPSSLSASVGDRVTITCRASQSILTYLNWYQQKPGKAPKLVIYAVTSLASGVPSRFSGSGSGTDFTLTISSLQPEDFATYYCQQSYDSPLTFGGGTKVEIK
B7: 365_F08 (antibody, V domains shown)
VH: EVQLLESGGGLVQPGGSLRLSCAASGFTFDDYGMNWVRQAPGKGLEWVANINYNGGYTSYADSVKGRFTISRDNSKNTLYLQMNSLRAEDTAVYYCARSATWHDTHLDYWGQGTLVTVSS
VL: DIQMTQSPSSLSASVGDRVTITCRASQSILSYVNWYQQKPGKAPKLLIYAATSRHSGVPSRFSGSGSGTDFTLTISSLQPEDFATYYCQQSYSLPLTFGGGTKVEIK
B8: 367_F02 (antibody, V domains shown)
VH: EVQLLESGGGLVQPGGSLRLSCAASGFTFDSYSMNWVRQAPGKGLEWVANINYNGGYTSYADSVKGRFTISRDNSKNTLYLQMNSLRAEDTAVYYCARSATWHDTHLDYWGQGTLVTVSS
VL: DIQMTQSPSSLSASVGDRVTITCRASQSIISYVNWYQQKPGKAPKLLIYAATSRHSGVPSRFSGSGSGTDFTLTISSLQPEDFATYYCQQSYESPLTFGGGTKVEIK
B9: 367_G07 (antibody, V domains shown)
VH: EVQLLESGGGLVQPGGSLRLSCAASGFTFDSYSMNWVRQAPGKGLEWVANINYNGGYTGYADSVKGRFTISRDNSKNTLYLQMNSLRAEDTAVYYCARSATWHDTHLDYWGQGTLVTVSS
VL: DIQMTQSPSSLSASVGDRVTITCRASQSILTYVNWYQQKPGKAPKLLIYAATSRASGVPSRFSGSGSGTDFTLTISSLQPEDFATYYCQQSYDNPLTFGGGTKVEIK
B10: 369_A10 (antibody, V domains shown)
VH: EVQLLESGGGLVQPGGSLRLSCAASGFTFDSYSMNWVRQAPGKGLEWVAGINYNSGYTGYADSVKGRFTISRDNSKNTLYLQMNSLRAEDTAVYYCARSATWHDTHLDYWGQGTLVTVSS
VL: DIQMTQSPSSLSASVGDRVTITCRASQSILSYLNWYQQKPGKAPKLLIYAATSRASGVPSRFSGSGSGTDFTLTISSLQPEDFATYYCQQSYELPLTFGGGTKVEIK
B11: 373_F03 (antibody, V domains shown)
VH: EVQLLESGGGLVQPGGSLRLSCAASGFTFDSYSMNWVRQAPGKGLEWVANINYNSGYTGYADSVKGRFTISRDNSKNTLYLQMNSLRAEDTAVYYCARSATWHDTHLDYWGQGTLVTVSS
VL: DIQMTQSPSSLSASVGDRVTITCRASQSILTYVNWYQQKPGKAPKLLIYAATSRHSGVPSRFSGSGSGTDFTLTISSLQPEDFATYYCQQSYDSPLTFGGGTKVEIK
B12: 375_C12 (antibody, V domains shown)
VH: EVQLLESGGGLVQPGGSLRLSCAASGFTFSSYSMNWVRQAPGKGLEWVANINYNGGYTGYADSVKGRFTISRDNSKNTLYLQMNSLRAEDTAVYYCARSATWHDTHLDYWGQGTLVTVSS
VL: DIQMTQSPSSLSASVGDRVTITCRASQSILTYLNWYQQKPGKAPKLLIYAATSRASGVPSRFSGSGSGTDFTLTISSLQPEDFATYYCQQSYDLPLTFGGGTKVEIK
B13: 368_F12 (antibody, V domains shown)
VH: EVQLLESGGGLVQPGGSLRLSCAASGFTFDDYSMNWVRQAPGKGLEWVASINYNSGYKSYADSVKGRFTISRDNSKNTLYLQMNSLRAEDTAVYYCARSATWHDTHLDYWGQGTLVTVSS
VL: DIQMTQSPSSLSASVGDRVTITCRASQSIVTYLNWYQQKPGKAPKLVIYAATSLASGVPSRFSGSGSGTDFTLTISSLQPEDFATYYCQQSYDLPLTFGGGTKVEIK
B14: 375_G07 (antibody, V domains shown)
VH: EVQLLESGGGLVQPGGSLRLSCAASGFTFDSYSMNWVRQAPGKGLEWVAGINYNSGYTSYADSVKGRFTISRDNSKNTLYLQMNSLRAEDTAVYYCARSATWHDTHLDYWGQGTLVTVSS
VL: DIQMTQSPSSLSASVGDRVTITCRASQSILSYLNWYQQKPGKAPKLVIYAATSLASGVPSRFSGSGSGTDFTLTISSLQPEDFATYYCQQSYDLPLTFGGGTKVEIK
B15: 374_D02 (antibody, V domains shown)
VH: EVQLLESGGGLVQPGGSLRLSCAASGFTFDSYSMNWVRQAPGKGLEWVAGINYNSGYTSYADSVKGRFTISRDNSKNTLYLQMNSLRAEDTAVYYCARSATWHDTHLDYWGQGTLVTVSS
VL: DIQMTQSPSSLSASVGDRVTITCRASQSISTYVNWYQQKPGKAPKLLIYAVTSLASGVPSRFSGSGSGTDFTLTISSLQPEDFATYYCQQSYDSPLTFGGGTKVEIK
B16: 371_F05 (antibody, V domains shown)
VH: EVQLLESGGGLVQPGGSLRLSCAASGFTFSSYSMNWVRQAPGKGLEWVAGINYNSGYKSYADSVKGRFTISRDNSKNTLYLQMNSLRAEDTAVYYCARSATWHDTHLDYWGQGTLVTVSS
VL: DIQMTQSPSSLSASVGDRVTITCRASQSILSYLNWYQQKPGKAPKLLIYAATSRHSGVPSRFSGSGSGTDFTLTISSLQPEDFATYYCQQSYENPLTFGGGTKVEIK
B17: 373_B08 (antibody, V domains shown)
VH: EVQLLESGGGLVQPGGSLRLSCAASGFTFDSYSMNWVRQAPGKGLEWVANINYNSGYKGYADSVKGRFTISRDNSKNTLYLQMNSLRAEDTAVYYCARSATWHDTHLDYWGQGTLVTVSS
VL: DIQMTQSPSSLSASVGDRVTITCRASQSILTYLNWYQQKPGKAPKLVIYAATSLASGVPSRFSGSGSGTDFTLTISSLQPEDFATYYCQQSYENPLTFGGGTKVEIK
B18: 368_G09 (antibody, V domains shown)
VH: EVQLLESGGGLVQPGGSLRLSCAASGFTFDSYGMHWVRQAPGKGLEWVANINYNGGYTSYADSVKGRFTISRDNSKNTLYLQMNSLRAEDTAVYYCARSATWHDTHLDYWGQGTLVTVSS
VL: DIQMTQSPSSLSASVGDRVTITCRASQSIVSYLNWYQQKPGKAPKLVIYAATSRASGVPSRFSGSGSGTDFTLTISSLQPEDFATYYCQQSYDTPLTFGGGTKVEIK
B19: 373_B11 (antibody, V domains shown)
VH: EVQLLESGGGLVQPGGSLRLSCAASGFTFSSYSMNWVRQAPGKGLEWVANINYNSGYKGYADSVKGRFTISRDNSKNTLYLQMNSLRAEDTAVYYCARSATWHDTHLDYWGQGTLVTVSS
VL: DIQMTQSPSSLSASVGDRVTITCRASQSILSYLNWYQQKPGKAPKLLIYAATSRASGVPSRFSGSGSGTDFTLTISSLQPEDFATYYCQQSYDNPLTFGGGTKVEIK
B20: 371_G03 (antibody, V domains shown)
VH: EVQLLESGGGLVQPGGSLRLSCAASGFTFSSYGMNWVRQAPGKGLEWVANINYNGGYKGYADSVKGRFTISRDNSKNTLYLQMNSLRAEDTAVYYCARSATWHDTHLDYWGQGTLVTVSS
VL: DIQMTQSPSSLSASVGDRVTITCRASQSIVTYVNWYQQKPGKAPKLVIYAATSLASGVPSRFSGSGSGTDFTLTISSLQPEDFATYYCQQSYNLPLTFGGGTKVEIK
B21: 368_E11 (antibody, V domains shown)
VH: EVQLLESGGGLVQPGGSLRLSCAASGFTFDSYGMHWVRQAPGKGLEWVANINYNGGYTSYADSVKGRFTISRDNSKNTLYLQMNSLRAEDTAVYYCARSATWHDTHLDYWGQGTLVTVSS
VL: DIQMTQSPSSLSASVGDRVTITCRASQSIISYVNWYQQKPGKAPKLLIYAATSRHSGVPSRFSGSGSGTDFTLTISSLQPEDFATYYCQQSYELPLTFGGGTKVEIK
B22: 375_B04 (antibody, V domains shown)
VH: EVQLLESGGGLVQPGGSLRLSCAASGFTFDSYSMNWVRQAPGKGLEWVANINYNGGYTGYADSVKGRFTISRDNSKNTLYLQMNSLRAEDTAVYYCARSATWHDTHLDYWGQGTLVTVSS
VL: DIQMTQSPSSLSASVGDRVTITCRASQSILTYLNWYQQKPGKAPKLLIYAATSRASGVPSRFSGSGSGTDFTLTISSLQPEDFATYYCQQSYDNPLTFGGGTKVEIK

molecular target: human Fc (human); experiment: ELISA; negative control

First: B1
Second: B2
The optical density of the first is lower: 0.201 OD for the first, 0.419 OD for the second.

Going from B3 to B4, the optical density falls from 0.381 OD to 0.349 OD.

Going from B5 to B6, the optical density falls from 0.379 OD to 0.293 OD.

First: B7
Second: B8
The optical density of the first is higher: 0.437 OD for the first, 0.315 OD for the second.

Going from B9 to B10, the optical density rises from 0.295 OD to 0.348 OD.

First: B11
Second: B12
The optical density of the first is lower: 0.179 OD for the first, 0.197 OD for the second.

First: B13
Second: B14
The optical density of the first is higher: 0.349 OD for the first, 0.178 OD for the second.

Going from B15 to B16, the optical density rises from 0.204 OD to 0.297 OD.

First: B17
Second: B18
The optical density of the first is lower: 0.17 OD for the first, 0.281 OD for the second.

Going from B19 to B20, the optical density rises from 0.178 OD to 0.359 OD.

Going from B21 to B22, the optical density falls from 0.341 OD to 0.19 OD.
